Legend:
[1] = molecular target: JellyOp (opsin-based pigment from the box jellyfish Carybdea rastonii) (Carybdea rastonii)
[2] = molecular target: JellyOp (opsin-based pigment from the box jellyfish Carybdea rastonii) (Carybdea rastonii); remark: listed apart in the source
[3] = molecular target: JellyOp(K72T) (Carybdea rastonii)

Chain of JellyOp (opsin-based pigment from the box jellyfish Carybdea rastonii) (Carybdea rastonii) (B6F0Y5 entry or part of it): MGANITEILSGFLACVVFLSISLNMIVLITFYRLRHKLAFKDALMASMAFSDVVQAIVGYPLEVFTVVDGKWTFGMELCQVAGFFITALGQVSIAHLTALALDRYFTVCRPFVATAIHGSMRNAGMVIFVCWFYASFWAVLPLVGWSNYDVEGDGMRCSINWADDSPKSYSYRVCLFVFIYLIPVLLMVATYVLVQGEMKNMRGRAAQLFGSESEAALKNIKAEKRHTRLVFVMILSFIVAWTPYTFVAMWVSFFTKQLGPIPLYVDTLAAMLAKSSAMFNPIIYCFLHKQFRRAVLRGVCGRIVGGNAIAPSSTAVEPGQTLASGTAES

time constant of onset (TauON) of the light-triggered GIRK current in cells expressing JellyOp [1]: 34 ms
time constant of inactivation (TauOFF) of the JellyOp GIRK response by high-intensity violet light (405 nm) [2]: 252 ms
fast time constant of GIRK current inactivation by violet light (double-exponential decay) [3]: 281 ms
slow time constant of GIRK current inactivation by violet light (double-exponential decay) [3]: 8.4 s
Substance: Gαs (from UniProt P63092 1-394) (natural protein)

— article PMC10147646
